# Results from patent publication US5770191, “Active C-terminal peptides of interferon--gamma and their use” (University of Florida, dated 1998).
# T1: murine IFNγ receptor (murine, UniProt P15261)
# T1 sequence: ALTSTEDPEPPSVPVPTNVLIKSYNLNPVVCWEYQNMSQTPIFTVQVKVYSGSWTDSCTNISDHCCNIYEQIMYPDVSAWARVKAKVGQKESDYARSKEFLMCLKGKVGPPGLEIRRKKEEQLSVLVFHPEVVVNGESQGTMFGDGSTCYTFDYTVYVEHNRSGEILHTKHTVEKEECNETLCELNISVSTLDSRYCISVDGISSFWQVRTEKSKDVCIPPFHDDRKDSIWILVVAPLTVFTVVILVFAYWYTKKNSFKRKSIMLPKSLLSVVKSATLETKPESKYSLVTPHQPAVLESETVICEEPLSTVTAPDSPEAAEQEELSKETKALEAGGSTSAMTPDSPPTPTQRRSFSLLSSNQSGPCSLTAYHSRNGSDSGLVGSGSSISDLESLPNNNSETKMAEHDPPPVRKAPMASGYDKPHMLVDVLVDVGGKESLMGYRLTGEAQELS
# Target: T1, murine IFNγ receptor
# Experiment: cell-based or functional assay
row,Binder,"Ia (MHC class II) expression on P388D1 cells by FACS, peptide at 100 µM, 24 hours [fold]"
1,LTNYSVTDLNVQRKAIHELIQVMAELSPAAKTGKRKRSQM [huIFNγ (95-134)],10
2,AKFEVNNPQVQRQAFNELIRVVHQLLPESSLRKRKRSRC [muIFNγ (95-133)],10
